Positions count from the first letter of the chain named.

The labels stand for the following.
B1: H183/L072 VL Q90L (antibody, name in Kabat numbering, V domains shown)
VH: QVQLVESGGGLVQPGRSLRLSCAASGFTFSNAWMHWVRQAPGKGLEWVAQIKDKGNAYAAYYAPSVKGRFTISRDDSKNSIYLQMNSLKTEDTAVYYCHYVHYASASTVLPAFGVDAWGQGTTVTVSS
VL: DIVMTQSPLSLPVTPGEPASISCQASQELVHMNRNTYLHWYQQKPGQAPRLLIYKVSNRFPGVPDRFSGSGSGTDFTLKISRVEAEDVGVYYCALGTSVPFTFGQGTKLEIK
notes: Dual-Ig
B2: H183/L072 VL R29P (antibody, name in Kabat numbering, V domains shown)
VH: B1 VH
VL: B1 VL with R34P, L95Q
notes: Dual-Ig
B3: H183/L072 VL Q90V (antibody, name in Kabat numbering, V domains shown)
VH: B1 VH
VL: B1 VL with L95V
notes: Dual-Ig
B4: H183/L072 VL R29A (antibody, name in Kabat numbering, V domains shown)
VH: B1 VH
VL: B1 VL with R34A, L95Q
notes: Dual-Ig
B5: H183/L072 VL R29L (antibody, name in Kabat numbering, V domains shown)
VH: B1 VH
VL: B1 VL with R34L, L95Q
notes: Dual-Ig
B6: H183/L072 VL Q90M (antibody, name in Kabat numbering, V domains shown)
VH: B1 VH
VL: B1 VL with L95M
notes: Dual-Ig
B7: H183/L072 VL R29S (antibody, name in Kabat numbering, V domains shown)
VH: B1 VH
VL: B1 VL with R34S, L95Q
notes: Dual-Ig
B8: H183/L072 VL R29V (antibody, name in Kabat numbering, V domains shown)
VH: B1 VH
VL: B1 VL with R34V, L95Q
notes: Dual-Ig
B9: H183/L072 VL R29T (antibody, name in Kabat numbering, V domains shown)
VH: B1 VH
VL: B1 VL with R34T, L95Q
notes: Dual-Ig
B10: H183/L072 VL Q90W (antibody, name in Kabat numbering, V domains shown)
VH: B1 VH
VL: B1 VL with L95W
notes: Dual-Ig
B11: H183/L072 VL Q90N (antibody, name in Kabat numbering, V domains shown)
VH: B1 VH
VL: B1 VL with L95N
notes: Dual-Ig
B12: H183/L072 VL Q90T (antibody, name in Kabat numbering, V domains shown)
VH: B1 VH
VL: B1 VL with L95T
notes: Dual-Ig
B13: H183/L072 VL R29I (antibody, name in Kabat numbering, V domains shown)
VH: B1 VH
VL: B1 VL with R34I, L95Q
notes: Dual-Ig
B14: H183/L072 VL R29Q (antibody, name in Kabat numbering, V domains shown)
VH: B1 VH
VL: B1 VL with R34Q, L95Q
notes: Dual-Ig
B15: H183/L072 VL R29D (antibody, name in Kabat numbering, V domains shown)
VH: B1 VH
VL: B1 VL with R34D, L95Q
notes: Dual-Ig
B16: H183/L072 VL R29N (antibody, name in Kabat numbering, V domains shown)
VH: B1 VH
VL: B1 VL with R34N, L95Q
notes: Dual-Ig
B17: H183/L072 VL R29K (antibody, name in Kabat numbering, V domains shown)
VH: B1 VH
VL: B1 VL with R34K, L95Q
notes: Dual-Ig
B18: H183/L072 VL R29Y (antibody, name in Kabat numbering, V domains shown)
VH: B1 VH
VL: B1 VL with R34Y, L95Q
notes: Dual-Ig
B19: H183/L072 VL Q90R (antibody, name in Kabat numbering, V domains shown)
VH: B1 VH
VL: B1 VL with L95R
notes: Dual-Ig
B20: H183/L072 VL R29W (antibody, name in Kabat numbering, V domains shown)
VH: B1 VH
VL: B1 VL with R34W, L95Q
notes: Dual-Ig
B21: H183/L072 VL R29H (antibody, name in Kabat numbering, V domains shown)
VH: B1 VH
VL: B1 VL with R34H, L95Q
notes: Dual-Ig
B22: H183/L072 VL R54A (antibody, name in Kabat numbering, V domains shown)
VH: B1 VH
VL: B1 VL with R59A, L95Q
notes: Dual-Ig
B23: H183/L072 VL R54F (antibody, name in Kabat numbering, V domains shown)
VH: B1 VH
VL: B1 VL with R59F, L95Q
notes: Dual-Ig
B24: H183/L072 VL R29M (antibody, name in Kabat numbering, V domains shown)
VH: B1 VH
VL: B1 VL with R34M, L95Q
notes: Dual-Ig
B25: H183/L072 VL R29G (antibody, name in Kabat numbering, V domains shown)
VH: B1 VH
VL: B1 VL with R34G, L95Q
notes: Dual-Ig
B26: H183/L072 VL R29E (antibody, name in Kabat numbering, V domains shown)
VH: B1 VH
VL: B1 VL with R34E, L95Q
notes: Dual-Ig
B27: H183/L072 VL Q90P (antibody, name in Kabat numbering, V domains shown)
VH: B1 VH
VL: B1 VL with L95P
notes: Dual-Ig
B28: H183/L072 VL R54D (antibody, name in Kabat numbering, V domains shown)
VH: B1 VH
VL: B1 VL with R59D, L95Q
notes: Dual-Ig
B29: H183/L072 VL R29F (antibody, name in Kabat numbering, V domains shown)
VH: B1 VH
VL: B1 VL with R34F, L95Q
notes: Dual-Ig
B30: H183/L072 VL R54E (antibody, name in Kabat numbering, V domains shown)
VH: B1 VH
VL: B1 VL with R59E, L95Q
notes: Dual-Ig
B31: H183/L072 VL Q90S (antibody, name in Kabat numbering, V domains shown)
VH: B1 VH
VL: B1 VL with L95S
notes: Dual-Ig

For this assay, the target named is T1, Human CD137 ECD (human).
T1 construct: entry includes C-terminal His-tag and biotin acceptor peptide; also called human CD137 extracellular domain; 4-1BB
T1 sequence (chain, as listed by the source limits assumed): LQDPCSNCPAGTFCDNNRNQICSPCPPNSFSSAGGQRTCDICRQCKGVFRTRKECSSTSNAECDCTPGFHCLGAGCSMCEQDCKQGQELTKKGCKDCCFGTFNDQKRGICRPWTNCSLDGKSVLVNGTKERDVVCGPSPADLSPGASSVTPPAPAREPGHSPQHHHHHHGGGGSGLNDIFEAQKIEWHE
Briefly: Biacore SPR, vs parent H183/L072. Background: In SPR one partner is held on a chip, and binding of the other changes the refractive index at the surface.
In the case of B1, the “fold change of affinity” value worked out at 0 fold.

On to B2, for which the “fold change of affinity” value came out at 0.2 fold. With B3, the “fold change of affinity” value amounted to 0 fold. For B4, the “fold change of affinity” value amounted to 0.8 fold. Then B5, with 0.9 fold; and B6, with 0 fold. Then B7, with 0.9 fold; and B8, with 0.3 fold.

On to B9, for which the “fold change of affinity” value stood at 0.8 fold. Under B10 stands 0 fold; under B11, 0 fold. Then B12, with 0 fold; and B13, with 0.3 fold. Take B14: the “fold change of affinity” value came to 0.9 fold.

With B15, the “fold change of affinity” value amounted to 0.3 fold. Under B16 stands 0.9 fold; under B17, 1.1 fold; under B18, 0.6 fold. Under B19 stands 0 fold; under B20, 0.6 fold. Under B21 stands 0.8 fold; under B22, 0.9 fold; under B23, 0.3 fold. Take B24: the “fold change of affinity” value came to 0.9 fold. Then B25, with 1.1 fold. Under B26 stands 0.4 fold. Take B27: the “fold change of affinity” value is 0 fold. On to B28, for which the “fold change of affinity” value was determined as 0.3 fold. Regarding B29, the “fold change of affinity” value was determined as 0.7 fold. Then B30, with 0.6 fold.

With B31, the “fold change of affinity” value amounted to 0 fold.

Source of the values: US20210388087A1 (Chugai, published 2021).
